In doi:10.1101/2020.09.01.278846 (bioRxiv, 2020):

Molecular target: the molecule itself
Test: bead aggregation assay

B1: hs PCDH24 EC1-MAD10Fc (Fc fusion)
chain: NVAPKFLANMTSVILPEDLPVGAQAFWLVAEDQDNDPLTYGMSGPNAYFFAVTPKTGEVKLASALDYETLYTFKVTISVSDPYIQVQREMLVIVEDRNDNAPVFQNTAFSTSINETLPVGSVVFSVLAVDKDMGSAGMVVYSIEKVIPSTGDSEHLFRILANGSIVLNGSLSYNNKSAFYQLELKACDLGGMYHNTFTIQCSLPVFLSISVVDQPDLDPQFVREFYSASVAEDAAKGTSVLTVEAVDGDKGINDPVIYSISYSTRPGWFDIGADGVIRVNGSLDREQLLEADEEVQLQVTATETHLNIYGQEAKVSIWVTVRVMDVNDHKPEFYNCSLPACTFTPEEAQVNFTGYVDEHASPRIPIDDLTMVVYDPDKGSNGTFLLSLGGPDAEAFSVSPERAVGSASVQVLVRVSALVDYERQTAMAVQVVATDSVSQNFSVAMVTIHLRDINDHRPTFPQSLYVLTVPEHSATGSVVTDSIHATDPDTGAWGQITYSLLPGNGADLFQVDPVSGTVTVRNGELLDRESQAVYYLTLQATDGGNLSSSTTLQIHLLDINDNAPVVSGSYNIFVQEEEGNVSVTIQAHDNDEPGTNNSRLLFNLLPGPYSHNFSLDPDTGLLRNLGPLDREAIDPALEGRIVLTVLVSDCGEPVLGTKVNVTITVEDINDNLPIFNQSSYNFTVKEEDPGVLVGVVKAWDADQTEANNRISFSLSGSGANYFMIRGLVLGAGWAEGYLRLPPDVSLDYETQPVFNLTVSAENPDPQGGETIVDVCVNVKDVNDNPPTLDVASLRGIRVAENGSQHGQVAVVVASDVDTSAQLEIQLVNILCTKAGVDVGSLCWGWFSVAANGSVYINQSKAIDYEACDLVTLVVRACDLATDPGFQAYSNNGSLLITIEDVNDNAPYFLPENKTFVIIPELVLPNREVASVRARDDDSGNNGVILFSILRVDFISKDGATIPFQGVFSIFTSSEADVFAGSIQPVTSLDSTLQGTYQVTVQARDRPSLGPFLEATTTLNLFTVDQSYRSRLQFSTPKEEVGANRQAINAALTQATRTTVYIVDIQDIDSAARARPHSYLDAYFVFPNGSALTLDELSVMIRNDQDSLTQLLQLGLVVLGSQESQESDLSKQLIS
Question: Does B1 bind?
Answer: Result: binds
